Reference: the supplement of paper PMC9112550, “Optimization of the antimicrobial peptide Bac7 by deep mutational scanning” (BMC Biology, 2022)

System: Escherichia coli TOP10
Assay: shrunken log2 fold change of peptide-encoding DNA abundance (4.5 h post-induction vs induction); higher = less antimicrobial activity (less host growth inhibition)
Conditions: time post-induction: 4.5 h; library: site-saturation at positions 5, 18, 19, 20
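Note: peptides expressed intracellularly from a pBAD plasmid library in pooled LB shake-flask culture, induced with 0.3% L-arabinose, DNA abundance read by NGS, three biological replicates, DESeq2 with apeglm shrinkage.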

## RRIRQRPPRLPRPRPRPVQKPRP
  shrunken log2 fold change: 0.25

## RRIRPRPPRLPRPRPRPPNKPRP
  shrunken log2 fold change: 0.139

## RRIRTRPPRLPRPRPRPTPDPRP
  shrunken log2 fold change: 0.306

## RRIRQRPPRLPRPRPRPPCGPRP
  shrunken log2 fold change: 0.184

## RRIRFRPPRLPRPRPRPTLFPRP
  shrunken log2 fold change: 0.243

## RRIRWRPPRLPRPRPRPGKHPRP
  shrunken log2 fold change: 0.0375

## RRIRPRPPRLPRPRPRPILVPRP
  shrunken log2 fold change: -0.178

## RRIRYRPPRLPRPRPRPKMNPRP
  shrunken log2 fold change: -0.616

## RRIRYRPPRLPRPRPRPLCRPRP
  shrunken log2 fold change: -0.863

## RRIRVRPPRLPRPRPRPRENPRP
  shrunken log2 fold change: 0.473

## RRIRERPPRLPRPRPRPLEIPRP
  shrunken log2 fold change: 0.0282

## RRIRGRPPRLPRPRPRPLTWPRP
  shrunken log2 fold change: 0.462

## RRIRPRPPRLPRPRPRPRGLPRP
  shrunken log2 fold change: 0.198

## RRIRARPPRLPRPRPRPLYKPRP
  shrunken log2 fold change: -0.362

## RRIRQRPPRLPRPRPRPFTKPRP
  shrunken log2 fold change: -0.0312

## RRIRLRPPRLPRPRPRPEYWPRP
  shrunken log2 fold change: -0.0516

## RRIRHRPPRLPRPRPRPKKSPRP
  shrunken log2 fold change: -0.0145

## RRIRHRPPRLPRPRPRPGYNPRP
  shrunken log2 fold change: -0.418

## RRIRVRPPRLPRPRPRPTDRPRP
  shrunken log2 fold change: -0.00137

## RRIRVRPPRLPRPRPRPHYKPRP
  shrunken log2 fold change: -0.389

## RRIRKRPPRLPRPRPRPSKCPRP
  shrunken log2 fold change: -0.388

## RRIRGRPPRLPRPRPRPINMPRP
  shrunken log2 fold change: -0.0846

## RRIRYRPPRLPRPRPRPCRRPRP
  shrunken log2 fold change: -0.0474

## RRIRNRPPRLPRPRPRPQGWPRP
  shrunken log2 fold change: 0.114

## RRIRLRPPRLPRPRPRPLERPRP
  shrunken log2 fold change: -0.000861

## RRIRRRPPRLPRPRPRPIQTPRP
  shrunken log2 fold change: 0.00408

## RRIRTRPPRLPRPRPRPHTNPRP
  shrunken log2 fold change: 0.0124

## RRIRCRPPRLPRPRPRPAWMPRP
  shrunken log2 fold change: -0.0623

## RRIRSRPPRLPRPRPRPQKEPRP
  shrunken log2 fold change: 0.052

## RRIRCRPPRLPRPRPRPMRVPRP
  shrunken log2 fold change: 0.839

## RRIRDRPPRLPRPRPRPIVKPRP
  shrunken log2 fold change: 0.0295

## RRIRLRPPRLPRPRPRPYHQPRP
  shrunken log2 fold change: -0.026

## RRIRQRPPRLPRPRPRPEYVPRP
  shrunken log2 fold change: -0.0886

## RRIRRRPPRLPRPRPRPFEDPRP
  shrunken log2 fold change: -0.0157

## RRIRPRPPRLPRPRPRPWHPPRP
  shrunken log2 fold change: -0.227

## RRIRIRPPRLPRPRPRPVWVPRP
  shrunken log2 fold change: 0.107

## RRIRCRPPRLPRPRPRPGFMPRP
  shrunken log2 fold change: -0.429

## RRIRTRPPRLPRPRPRPEPVPRP
  shrunken log2 fold change: 0.272

## RRIRDRPPRLPRPRPRPRMRPRP
  shrunken log2 fold change: 0.984

## RRIRKRPPRLPRPRPRPQVKPRP
  shrunken log2 fold change: 0.0274

## RRIRNRPPRLPRPRPRPVKKPRP
  shrunken log2 fold change: -0.0236

## RRIRHRPPRLPRPRPRPLRGPRP
  shrunken log2 fold change: 1.02

## RRIRARPPRLPRPRPRPIMWPRP
  shrunken log2 fold change: 0.217

## RRIRQRPPRLPRPRPRPDTEPRP
  shrunken log2 fold change: 0.0371

## RRIRFRPPRLPRPRPRPTSLPRP
  shrunken log2 fold change: -1.17

## RRIRFRPPRLPRPRPRPVKSPRP
  shrunken log2 fold change: -0.159

## RRIRYRPPRLPRPRPRPAYPPRP
  shrunken log2 fold change: -0.422

## RRIRWRPPRLPRPRPRPKHAPRP
  shrunken log2 fold change: 0.222

## RRIRCRPPRLPRPRPRPVHPPRP
  shrunken log2 fold change: -0.375

## RRIRLRPPRLPRPRPRPNNSPRP
  shrunken log2 fold change: -0.952

## RRIRHRPPRLPRPRPRPQKLPRP
  shrunken log2 fold change: -0.52

## RRIRMRPPRLPRPRPRPTSMPRP
  shrunken log2 fold change: 0.0931

## RRIRERPPRLPRPRPRPALEPRP
  shrunken log2 fold change: 0.0291

## RRIRCRPPRLPRPRPRPRCQPRP
  shrunken log2 fold change: -0.146

## RRIRMRPPRLPRPRPRPPISPRP
  shrunken log2 fold change: 0.163

## RRIRGRPPRLPRPRPRPVPRPRP
  shrunken log2 fold change: 0.806

## RRIRFRPPRLPRPRPRPNSLPRP
  shrunken log2 fold change: -0.189

## RRIRFRPPRLPRPRPRPNMWPRP
  shrunken log2 fold change: -0.485

## RRIRHRPPRLPRPRPRPIHHPRP
  shrunken log2 fold change: -0.216

## RRIRQRPPRLPRPRPRPPQYPRP
  shrunken log2 fold change: 0.198

## RRIRSRPPRLPRPRPRPTICPRP
  shrunken log2 fold change: -0.126

## RRIRYRPPRLPRPRPRPTAAPRP
  shrunken log2 fold change: 0.111

## RRIRCRPPRLPRPRPRPDFPPRP
  shrunken log2 fold change: 0.137

## RRIRERPPRLPRPRPRPRVRPRP
  shrunken log2 fold change: 0.211

## RRIRPRPPRLPRPRPRPGQVPRP
  shrunken log2 fold change: 0.11

## RRIRGRPPRLPRPRPRPPYYPRP
  shrunken log2 fold change: -0.0196

## RRIRERPPRLPRPRPRPSSMPRP
  shrunken log2 fold change: -0.284

## RRIRFRPPRLPRPRPRPDHPPRP
  shrunken log2 fold change: -0.593

## RRIRSRPPRLPRPRPRPYYFPRP
  shrunken log2 fold change: -0.664

## RRIRSRPPRLPRPRPRPMSIPRP
  shrunken log2 fold change: -0.214

## RRIRKRPPRLPRPRPRPQYYPRP
  shrunken log2 fold change: -0.359

## RRIRGRPPRLPRPRPRPSVDPRP
  shrunken log2 fold change: 0.861

## RRIRSRPPRLPRPRPRPCTFPRP
  shrunken log2 fold change: -0.401

## RRIRERPPRLPRPRPRPFTAPRP
  shrunken log2 fold change: -0.227

## RRIRCRPPRLPRPRPRPYNQPRP
  shrunken log2 fold change: -1.23

## RRIRHRPPRLPRPRPRPMFVPRP
  shrunken log2 fold change: 0.0711

## RRIRSRPPRLPRPRPRPALWPRP
  shrunken log2 fold change: 0.825

## RRIRQRPPRLPRPRPRPVTNPRP
  shrunken log2 fold change: 0.0368

## RRIRDRPPRLPRPRPRPECEPRP
  shrunken log2 fold change: 1.53

## RRIRHRPPRLPRPRPRPQGHPRP
  shrunken log2 fold change: -0.268

## RRIRARPPRLPRPRPRPEEQPRP
  shrunken log2 fold change: 1.97

## RRIRIRPPRLPRPRPRPDPPPRP
  shrunken log2 fold change: 0.075

## RRIRPRPPRLPRPRPRPYKCPRP
  shrunken log2 fold change: -0.0297

## RRIRTRPPRLPRPRPRPHKSPRP
  shrunken log2 fold change: 0.119

## RRIRYRPPRLPRPRPRPTHRPRP
  shrunken log2 fold change: -0.1

## RRIRGRPPRLPRPRPRPTNPPRP
  shrunken log2 fold change: 0.367

## RRIRMRPPRLPRPRPRPWNQPRP
  shrunken log2 fold change: -0.0405

## RRIRNRPPRLPRPRPRPDYSPRP
  shrunken log2 fold change: -0.0548

## RRIRFRPPRLPRPRPRPGDLPRP
  shrunken log2 fold change: -0.23

## RRIRNRPPRLPRPRPRPFPIPRP
  shrunken log2 fold change: -0.132

## RRIRTRPPRLPRPRPRPEIFPRP
  shrunken log2 fold change: -0.303

## RRIRRRPPRLPRPRPRPQDPPRP
  shrunken log2 fold change: 0.376

## RRIRIRPPRLPRPRPRPEDWPRP
  shrunken log2 fold change: 0.0775

## RRIRSRPPRLPRPRPRPMMNPRP
  shrunken log2 fold change: -0.0187

## RRIRCRPPRLPRPRPRPISRPRP
  shrunken log2 fold change: -0.503

## RRIRRRPPRLPRPRPRPKFGPRP
  shrunken log2 fold change: 0.172

## RRIRQRPPRLPRPRPRPDRHPRP
  shrunken log2 fold change: -0.182

## RRIRYRPPRLPRPRPRPIEMPRP
  shrunken log2 fold change: 0.0294

## RRIRPRPPRLPRPRPRPMVLPRP
  shrunken log2 fold change: 0.0636

## RRIRRRPPRLPRPRPRPCTTPRP
  shrunken log2 fold change: 0.212

## RRIRTRPPRLPRPRPRPEEEPRP
  shrunken log2 fold change: 0.385

## RRIRSRPPRLPRPRPRPCSNPRP
  shrunken log2 fold change: -0.0564

## RRIRMRPPRLPRPRPRPGTFPRP
  shrunken log2 fold change: -0.0326

## RRIRSRPPRLPRPRPRPSGQPRP
  shrunken log2 fold change: -0.0423

## RRIRNRPPRLPRPRPRPTGEPRP
  shrunken log2 fold change: 0.394

## RRIRHRPPRLPRPRPRPAYIPRP
  shrunken log2 fold change: -0.00844

## RRIRVRPPRLPRPRPRPVVEPRP
  shrunken log2 fold change: -0.112

## RRIRIRPPRLPRPRPRPMRLPRP
  shrunken log2 fold change: 0.0554

## RRIRDRPPRLPRPRPRPWFCPRP
  shrunken log2 fold change: -0.272

## RRIRHRPPRLPRPRPRPEMYPRP
  shrunken log2 fold change: 0.000706

## RRIRDRPPRLPRPRPRPFFHPRP
  shrunken log2 fold change: 0.119

## RRIRHRPPRLPRPRPRPGVTPRP
  shrunken log2 fold change: 0.00739

## RRIRVRPPRLPRPRPRPIKVPRP
  shrunken log2 fold change: -0.167

## RRIRTRPPRLPRPRPRPHQNPRP
  shrunken log2 fold change: -0.253

## RRIRFRPPRLPRPRPRPKLFPRP
  shrunken log2 fold change: -0.0554

## RRIRTRPPRLPRPRPRPSPLPRP
  shrunken log2 fold change: -0.335

## RRIRLRPPRLPRPRPRPWAEPRP
  shrunken log2 fold change: 0.13

## RRIRPRPPRLPRPRPRPKFEPRP
  shrunken log2 fold change: 0.319

## RRIRDRPPRLPRPRPRPIIFPRP
  shrunken log2 fold change: -0.00292

## RRIRWRPPRLPRPRPRPPLMPRP
  shrunken log2 fold change: 0.213

## RRIRGRPPRLPRPRPRPNGGPRP
  shrunken log2 fold change: 0.0238

## RRIRKRPPRLPRPRPRPKCMPRP
  shrunken log2 fold change: 0.15

## RRIRHRPPRLPRPRPRPFPHPRP
  shrunken log2 fold change: 0.188

## RRIRARPPRLPRPRPRPLMEPRP
  shrunken log2 fold change: 0.493

## RRIRIRPPRLPRPRPRPRRLPRP
  shrunken log2 fold change: -0.0824
